For this assay, the target named is functional streptavidin subunit with N-terminal cysteine and His-tag (Streptomyces avidinii) (UniProt P22629). Put plainly: refolding of mixed subunits, purification via the His-tag of one subunit, SDS-PAGE of heated and unheated samples; solubilized inclusion bodies mixed at a 1:10 ratio before refolding; tetramer purified via the His-tag of the cysteine-bearing subunit; gel of samples heated 5 min to 95°C (monomers) and of unheated samples (tetramers), room temperature.

The term stoichiometry N denotes the number of molecules, sites or subunits per partner or assembly. As for “functional SA subunit devoid of cysteine and His-tag (domain or fragment)”, the stoichiometry N was 3.

Values taken from PMC5716544.
